Assay: pNA assay dose/response curves with and without various inhibitors
Format: biochemical
Conditions: proteases included for comparative purposes
Protocol: pNA substrate: Suc-AAPF-pNA (Bachem L-1400) or Boc-VLGR-pNA (Bachem L-1205). Temperature: 25° C.
20 ul (microliters) protease (diluted in 0.01% Triton X-100) was placed in a well of a micro titer plate. The assay was started by adding 200 ul pNA substrate (50 mg dissolved in 1.0 ml DMSO and further diluted 100× with assay buffer). The increase in OD405 was monitored as a measure of the protease activity.
Dose/response relationships (OD405/min versus (mg enzyme)/l) were determined using the pNA assay for a number of proteases, with and without the various inhibitors. The dose-response curves were linear over a satisfactory broad range of enzyme concentrations. Varying degrees of inhibition were observed: Some proteases included for comparative purposes, viz. porcine trypsin and the SAVINASE™ protease (a subtilisin protease derived from Bacillus clausii, commercially available from Novozymes A/S, Krogshoejvej 36, DK-2880 Bagsvaerd, Denmark) were not inhibited, while other proteases were. […] It was therefore concluded that the pNA assay was indeed suitable for inhibition measurements.
Cu^2+, however, inhibited all of the proteases tested (to a varying extent, as it appears from Table 1 below).

B1: porcine trypsin: protease included for comparative purposes (protein, UniProt P00761 9-231, looked up)
Trypsin: IVGGYTCAANSIPYQVSLNSGSHFCGGSLINSQWVVSAAHCYKSRIQVRLGEHNIDVLEGNEQFINAAKIITHPNFNGNTLDNDIMLIKLSSPATLNSRVATVSLPRSCAAAGTECLISGWGNTKSSGSSYPSLLQCLKAPVLSDSSCKSSYPGQITGNMICVGFLEGGKDSCQGDSGGPVVCNGQLQGIVSWGYGCAQKNKPGVYTKVCNYVNWIQQTIAAN
  Inhibition by the various inhibitors (dose/response, pNA assay): not inhibited
